Laboratory results as given in PMC11772769 (2024).

B1: MBP-SNX17 (full-length, wild-type) [not stated] / Peptide LRP1_(14mer) [modified: 5-FAM (5-carboxyfluorescein) on the N-terminus; 5-FAM (5-carboxyfluorescein) on the N-terminus] [not stated] (parent complex)
chain 1: MHFSIPETESRSGDSGGSAYVAYNIHVNGVLHCRVRYSQLLGLHEQLRKEYGANVLPAFPPKKLFSLTPAEVEQRREQLEKYMQAVRQDPLLGSSETFNSFLRRAQQETQQVPTEEVSLEVLLSNGQKVLVNVLTSDQTEDVLEAVAAKLDLPDDLIGYFSLFLVREKEDGAFSFVRKLQEFELPYVSVTSLRSQEYKIVLRKSYWDSAYDDDVMENRVGLNLLYAQTVSDIERGWILVTKEQHRQLKSLQEKVSKKEFLRLAQTLRHYGYLRFDACVADFPEKDCPVVVSAGNSELSLQLRLPGQQLREGSFRVTRMRCWRVTSSVPLPSGSTSSPGRGRGEVRLELAFEYLMSKDRLQWVTITSPQAIMMSICLQSMVDELMVKKSGGSIRKMLRRRVGGTLRRSDSQQAVKSPPLLESPDATRESMVKLSSKLSAVSLRGIGSPSTDASASDVHGNFAFEGIGDEDL
chain 2: MNVEIGNPTYKMYE

Variants of: B1
Experiment: fluorescence anisotropy; 5-FAM-labeled LRP1 14-mer peptide

Point of comparison: chain 1 MHFSIPETESRSGDSGGSAYVAYNIHVNGVLHCRVRYSQLLGLHEQLRKEYGANVLPAFPPKKLFSLTPAEVEQRREQLEKYMQAVRQDPLLGSSETFNSFLRRAQQETQQVPTEEVSLEVLLSNGQKVLVNVLTSDQTEDVLEAVAAKLDLPDDLIGYFSLFLVREKEDGAFSFVRKLQEFELPYVSVTSLRSQEYKIVLRKSYWDSAYDDDVMENRVGLNLLYAQTVSDIERGWILVTKEQHRQLKSLQEKVSKKEFLRLAQTLRHYGYLRFDACVADFPEKDCPVVVSAGNSELSLQLRLPGQQLREGSFRVTRMRCWRVTSSVPLPSGSTSSPGRGRGEVRLELAFEYLMSKDRLQWVTITSPQAIMMSICLQSMVDELMVKKSGGSIRKMLRRRVGGTLRRSDSQQAVKSPPLLESPDATRESMVKLSSKLSAVSLRGIGSPSTDASASDVHGAFAAEGIGDEDL [chain 1 N459A, chain 1 F462A], Kd 1500 nM. Against it:
- chain 1 MHFSIPETESRSGDSGGSAYVAYNIHVNGVLHCRVRYSQLLGLHEQLRKEYGANVLPAFPPKKLFSLTPAEVEQRREQLEKYMQAVRQDPLLGSSETFNSFLRRAQQETQQVPTEEVSLEVLLSNGQKVLVNVLTSDQTEDVLEAVAAKLDLPDDLIGYFSLFLVREKEDGAFSFVRKLQEFELPYVSVTSLRSQEYKIVLRKSYWDSAYDDDVMENRVGLNLLYAQTVSDIERGWILVTKEQHRQLKSLQEKVSKKEFLRLAQTLRHYGYLRFDACVADFPEKDCPVVVSAGNSELSLQLRLPGQQLREGSFRVTRMRCWRVTSSVPLPSGSTSSPGRGRGEVRLELAFEYLMSKDRLQWVTITSPQAIMMSICLQSMVDELMVKKSGGSIRKMLRRRVGGTLRRSDSQQAVKSPPLLESPDATRESMVKLSSKLSAVSLRGIGSPSTDASASDVAGNFAFEGIGDEDL [chain 1 H457A] — 2.5-fold higher, 3800 nM
